Measured values: publication PMC9482650, “Quantitative fragmentomics allow affinity mapping of interactomes” (Nature Communications, 2022)

Assays:
Test in all cases: holdup assay
Conditions in all cases: plain residues with an end cap or a label only (N-terminal biotin on a linker: (peg)3)
[1] = biological target: AHNAK2, Q8IVF2
[2] = biological target: T1, CNKSR1, Q969H4
T1 sequence (Q969H4 191-295, limits assumed, looked up): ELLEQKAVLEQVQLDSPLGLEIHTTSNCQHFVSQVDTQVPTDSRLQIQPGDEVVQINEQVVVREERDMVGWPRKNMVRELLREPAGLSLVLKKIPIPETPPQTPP

[3] = biological target: CNKSR3, Q6P9H4
CNKSR3, Q6P9H4, sequence (Q6P9H4 203-303): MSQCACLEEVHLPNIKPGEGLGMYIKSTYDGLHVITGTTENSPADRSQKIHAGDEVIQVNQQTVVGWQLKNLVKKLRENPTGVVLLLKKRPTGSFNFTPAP

[4] = biological target: DLG5_2, Q8TDM6
DLG5_2, Q8TDM6, sequence (Q8TDM6 714-800): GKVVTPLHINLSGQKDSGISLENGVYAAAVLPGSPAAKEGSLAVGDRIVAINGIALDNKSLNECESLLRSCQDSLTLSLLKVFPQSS

[5] = biological target: T2, DVL1, O14640
T2 sequence (O14640 246-333, limits assumed, looked up): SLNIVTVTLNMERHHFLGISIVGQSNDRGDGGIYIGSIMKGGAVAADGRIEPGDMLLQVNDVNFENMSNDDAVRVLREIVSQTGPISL

[6] = biological target: DVL2, O14641
DVL2, O14641, sequence (O14641 260-359): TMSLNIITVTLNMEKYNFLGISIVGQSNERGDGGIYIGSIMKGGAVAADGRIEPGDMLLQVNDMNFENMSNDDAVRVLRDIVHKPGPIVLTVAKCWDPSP

[7] = biological target: T3, GRIP1_1, Q9Y3R0
T3 sequence (Q9Y3R0 48-146, limits assumed, looked up): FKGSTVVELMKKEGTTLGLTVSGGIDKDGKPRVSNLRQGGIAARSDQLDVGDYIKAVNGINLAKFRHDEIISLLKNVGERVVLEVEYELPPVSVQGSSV

[8] = biological target: GRIP2_2, Q9C0E4
GRIP2_2, Q9C0E4, sequence (Q9C0E4 137-245): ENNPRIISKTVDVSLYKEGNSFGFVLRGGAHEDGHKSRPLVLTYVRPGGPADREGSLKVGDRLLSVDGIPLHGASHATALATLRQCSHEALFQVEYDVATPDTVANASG

[9] = biological target: IL16_2, Q14005
IL16_2, Q14005, sequence (Q14005 350-450): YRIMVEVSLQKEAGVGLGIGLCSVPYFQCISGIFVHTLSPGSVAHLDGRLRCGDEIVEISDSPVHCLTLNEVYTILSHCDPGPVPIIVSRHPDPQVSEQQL

[10] = biological target: Inadl_7, Q8NI35
Inadl_7, Q8NI35, sequence (Q8NI35 1219-1332): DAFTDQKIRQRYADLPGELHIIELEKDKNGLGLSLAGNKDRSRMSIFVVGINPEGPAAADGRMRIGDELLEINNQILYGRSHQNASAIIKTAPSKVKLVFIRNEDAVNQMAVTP

[11] = biological target: T4, LNX2_1, Q8N448
T4 sequence (Q8N448 228-328, limits assumed, looked up): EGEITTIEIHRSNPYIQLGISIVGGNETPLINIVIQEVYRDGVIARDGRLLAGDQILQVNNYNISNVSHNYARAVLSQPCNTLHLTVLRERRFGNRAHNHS

[12] = biological target: T5, LNX2_4, Q8N448
T5 sequence (Q8N448 595-690, limits assumed, looked up): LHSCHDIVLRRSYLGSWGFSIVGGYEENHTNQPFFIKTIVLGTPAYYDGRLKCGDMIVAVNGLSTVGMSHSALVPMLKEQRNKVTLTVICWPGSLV

[13] = biological target: T6, MPDZ_11, O75970
T6 sequence (O75970 1720-1817, limits assumed, looked up): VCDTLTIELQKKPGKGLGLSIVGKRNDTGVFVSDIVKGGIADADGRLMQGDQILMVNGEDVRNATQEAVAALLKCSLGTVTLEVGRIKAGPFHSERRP

[14] = biological target: T7, MPDZ_2, O75970
T7 sequence (O75970 252-347, limits assumed, looked up): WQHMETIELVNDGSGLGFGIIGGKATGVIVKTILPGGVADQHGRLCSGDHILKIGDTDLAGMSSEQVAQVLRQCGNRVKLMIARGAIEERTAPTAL

[15] = biological target: T8, MPDZ_6, O75970
T8 sequence (O75970 1003-1099, limits assumed, looked up): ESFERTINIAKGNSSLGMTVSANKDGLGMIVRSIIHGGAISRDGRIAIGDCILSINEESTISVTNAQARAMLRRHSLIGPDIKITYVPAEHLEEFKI

[16] = biological target: NHERF4_3, Q86UT5
NHERF4_3, Q86UT5, sequence (Q86UT5 325-412): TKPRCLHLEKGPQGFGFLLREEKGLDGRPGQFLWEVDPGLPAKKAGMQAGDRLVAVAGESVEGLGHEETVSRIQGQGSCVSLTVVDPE

[17] = biological target: PARD3_1, Q8TEW0
PARD3_1, Q8TEW0, sequence (Q8TEW0 264-372): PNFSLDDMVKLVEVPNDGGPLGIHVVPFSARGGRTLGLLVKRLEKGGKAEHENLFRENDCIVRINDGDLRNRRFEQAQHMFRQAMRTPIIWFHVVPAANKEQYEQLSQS

[18] = biological target: T9, PARD6B, Q9BYG5
T9 sequence (Q9BYG5 152-260, limits assumed, looked up): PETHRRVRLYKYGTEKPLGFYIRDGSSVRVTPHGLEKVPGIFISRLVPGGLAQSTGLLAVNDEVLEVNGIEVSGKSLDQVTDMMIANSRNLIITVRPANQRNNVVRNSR

[19] = biological target: T10, PDZD2_6, O15018
T10 sequence (O15018 2745-2839, limits assumed, looked up): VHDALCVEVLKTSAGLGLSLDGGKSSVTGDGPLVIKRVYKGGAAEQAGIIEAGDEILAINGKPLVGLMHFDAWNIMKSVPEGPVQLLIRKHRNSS

[20] = biological target: T11, PREX2_2, Q70Z35
T11 sequence (Q70Z35 672-764, limits assumed, looked up): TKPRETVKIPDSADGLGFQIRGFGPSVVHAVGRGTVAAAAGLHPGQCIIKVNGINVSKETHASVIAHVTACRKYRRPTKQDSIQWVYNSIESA

[21] = biological target: T12, PTPN13_4, Q12923
T12 sequence (Q12923 1783-1878, limits assumed, looked up): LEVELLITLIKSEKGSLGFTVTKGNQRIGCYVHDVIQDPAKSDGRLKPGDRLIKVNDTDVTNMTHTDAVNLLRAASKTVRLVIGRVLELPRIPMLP

[22] = biological target: SDCBP_1, O00560
SDCBP_1, O00560, sequence (O00560 111-198): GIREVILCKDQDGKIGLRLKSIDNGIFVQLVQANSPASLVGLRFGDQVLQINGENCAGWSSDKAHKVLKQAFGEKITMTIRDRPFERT

[23] = biological target: T13, SHROOM2, Q13796
T13 sequence (Q13796 21-118, limits assumed, looked up): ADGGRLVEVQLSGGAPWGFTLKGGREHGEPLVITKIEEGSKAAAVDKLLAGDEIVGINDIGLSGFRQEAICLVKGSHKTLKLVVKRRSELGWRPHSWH

[24] = biological target: T14, SIPA1L3, O60292
T14 sequence (O60292 961-1052, limits assumed, looked up): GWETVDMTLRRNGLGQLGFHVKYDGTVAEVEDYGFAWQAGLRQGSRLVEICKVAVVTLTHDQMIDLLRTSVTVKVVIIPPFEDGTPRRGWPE

AHNAK2, Q8IVF2, sequence (Q8IVF2 108-193): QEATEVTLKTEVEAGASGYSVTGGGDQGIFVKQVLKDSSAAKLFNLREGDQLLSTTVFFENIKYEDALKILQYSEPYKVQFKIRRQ

B1: SARS-CoV-E, P59637 (peptide)
chain: NLNSSEGVPDLLV
- pKd [1]: below the threshold
- pKd [2]: below the threshold
- pKd [3]: below the threshold
- pKd [4]: below the threshold
- pKd [5]: below the threshold
- pKd [6]: below the threshold
- pKd [7]: below the threshold
- pKd [8]: below the threshold
- pKd [9]: below the threshold
- pKd [10]: below the threshold
- pKd [11]: below the threshold
- pKd [12]: 3.74
- pKd [13]: below the threshold
- pKd [14]: below the threshold
- pKd [15]: below the threshold
- pKd [16]: below the threshold
- pKd [17]: 3.79
- pKd [18]: below the threshold
- pKd [19]: 4.26
- pKd [20]: below the threshold
- pKd [21]: 4.64
- pKd [22]: below the threshold
- pKd [23]: below the threshold
- pKd [24]: below the threshold
